Entries after “also recorded” stand apart in the source; their conditions may differ. One block for each molecule: values may come before it.
Experiments:
[1] = Relaxivity measurements (60 MHz, 37 °C); assay type: physicochemical; settings: 60 MHz (1.4 T), Bruker minispec mq60, Gd^3+ concentration by ICP-OES
Procedure: Relaxivity measurements were performed on a Bruker® minispec mq60NMR analyzer (Brucker, USA) at 37 °C at 1.4 T (60 MHz). Samples were measured at a specific Gd^3+ concentration (mM), calculated from ICP-OES. The longitudinal relaxation time T1 and the transverse relaxation time T2 (s) were measured at 60 MHz and at 37 °C. Then the relaxivities ri (s^−1 mM^−1) were obtained according to the following formula: 1/Timeasured=1/Tiwater+riGd^3+ where i = 1 or 2.

[2] = system: amyloid fibrils; settings: cited from earlier work
Source text: Currently, magnetic resonance imaging (MRI) is the preferred neuroimaging examination for AD as it allows an accurate measurement of brain structures’ volume, although a decrease of this latter appears to be a nonspecific and late feature of cerebral vascular diseases’ progression. Thus, studies are under way to develop specific imaging markers for different types of dementia, including markers of senile plaques for very-high-field MRI and positron emission tomography (PET). A better characterization of the amyloid plaque presence and load in the brain can be also expected from i ...

[3] = system: fibrils; assay: Cy5.5 staining of fibrils in vitro (personal data); assay type: binding; settings: in vitro on fibrils (personal data)
[4] = system: Aβ amyloid plaques (APPswe/PS1A246E/TTR(−/−) transgenic mouse brain sections); assay: Immunohistochemistry on AD mouse brain sections with amyloid plaques; settings: 10 months old APPswe/PS1A246E/TTR(−/−) hippocampus, nanoparticles at 3 nM Cy5.5 (2 mM Gd^3+) with 3 mM ungrafted nanoparticles, or PIB 1 µM, 1h30 RT, fluorescence
[5] = system: Aβ amyloid plaques (APPswe/PS1A246E/TTR(−/−) transgenic mouse brain sections); settings: cited from earlier work
Procedure: The specificity of functionalized nanoparticles binding was verified, by incubating nanoparticles without grafted-peptides, AGuIX@PEG@Cy5.5, on brain section containing amyloid burden. […] Whereas, various other cyanine derivative d ...

[6] = system: V30M-TTR fibrils; assay: SPR binding to V30M-TTR fibrils; parameters: species or system human; settings: 800 R.U. V30M-TTR fibrils, 0.02–6.4 mM in peptide, R.U. 141 s after end of injection
Source text: N-(3-Dimethylaminopropyl)-N′-ethylcarbodiimide hydrochloride (EDC, >98.0 %), N-hydroxysuccinimide (NHS, >97.0 %), gadolinium chloride hexahydrate ([GdCl3·6H2O], 99 %), sodium hydroxide (NaOH, 99.99 %), hydrochloric acid (HCl, 36.5–38 %), sodium chloride (NaCl, >99.5 %), dimethyl sulfoxide (DMSO, >99.5 %), acetonitrile (CH3CN, >99.9 %), trifluoroacetic acid (TFA, >99 %), trinitrobenzene sulfonic acid (TNBS) 1 M in water, sodium dodecyl sulfate (SDS, >99 %), (3-aminopropyl)triethoxysilane (APTES, >98 %), tetraethyl orthosilicate (TEOS; >98 %) and Poly(ethylene glycol) bis(carboxymethyl) ether (PEG) with an average molecular weight Mn = 250 g mol^−1 were purchased from Aldrich Chemical (France) and used without further purification. Diethylene glycol (DEG, 99 %) was purchased from SDS Carlo Erba (France). Acetone (reagent grade) was purchased from Sodipro (France) and was used as received. […] Recombinant human V30M-TTR protein was obtained following cloning its gene in the plasmid pQE81L and its expression in Escherichia coli (M15). Briefly, bacterial cultures were performed in LB medium, 100 µg mL^−1 ampicillin and 25 µg mL^−1 kanamycin, at 37 °C, under constant orbital shaking. Protein production was pursued for 7 h after IPTG induction when the absorbance was 0.700 at 600 nm. The bacterial pellet of 50 mL of culture was resuspended in sodium phosphate 50 mM, pH 8, sodium chloride 300 mM, imidazole 10 mM, betamercaptoethanol 10 mM, supplemented with 500 µL of a protease inhibitor, phenylmethylsulfonyl fluoride (Sigma, #78830), at 1 mM final and a cocktail of protease inhibitor EDTA-free (Roche, #11873580001). The suspension was sonicated during a total time of 6 min with repeated cycles of 5/7 s off with an amplitude of 20 %, then centrifuged during 30 min at 100,000g, to pellet cellular debris. The supernatant was filtered on 0.2 µm cut off filters. The purification of the protein was performed on immobilized metal ion chromatography (Chelating Fast Flow, Amersham #17057501), and dialyzed against 20 mM·NH4HCO3 (membrane cutoff 1/10,000; 3500 MWCO Spectrapore). Finally, the protein was freeze-dried. The protein quality was checked by SDS PAGE gel 15 %. The Pittsburgh compound-B (PIB) derivative molecule was synthetized according to the procedure already described in the literature. Starting from the p-anisidine, the p-nitrobenzoyl amide was readily obtained and then the corresponding thioamide was prepared by reaction with Lawesson’s reagent. Finally, an oxidative cyclization was done to lead to the benzothiazole derivative, and the nitro function was reduced to give compound (Synthesis’ details in Additional file 1). […]

[7] = Dynamic light scattering, hydrodynamic diameter; assay type: physicochemical; settings: DLS, Zetasizer NanoS, 532 nm, 10 mM Gd^3+, 0.2 µm filtered; measurement repeated 8 times
Procedure: Hydrodynamic diameters (DH) of the Nps were determined with a Zetasizer NanoS (laser He–Ne 532 nm) from Malvern Instrument® (5 mW, with 173° NIBS detector and narrow band filter). Attenuator was optimized by the device and position was set to the center of the cell. To perform the measurement, 1 mL of nanoparticles suspensions at 10 mM Gd^3+ was poured in a 12 mm square polystyrene disposable cuvette after filtration on a 0.2 µm cut-off nylon filter. Each measurement was repeated 8 times.

[8] = system: SH-SY5Y; assay: MTT cell viability
[9] = biological target: T1, Aβ(1–42) fibrils (Homo sapiens, UniProt P05067); assay: SPR binding to Aβ(1–42) fibrils
T1 construct: Freeze-dried Aβ(1–42) peptide (Genecust) was dissolved in distilled water at pH 11.0; purchased Genecust (Luxembourg)
Procedure: The surface plasmon resonance assays were performed using a BIAcore® 2000 biosensor. The instrument was equipped with a CM3 sensor chip (GE Healthcare®, Uppsala, Sweden). The interaction studies took place on a gold chip functionalized with carboxymethylated dextran. The sensor surface itself form one wall of a flow cell, which is an integral part of the microfluidic system. All SPR experiments were performed at 25 °C. HEPES buffer (HBS-P, GE Healthcare®, 0.01 M HEPES, 0.15 M NaCl, 0.005 % surfactant p20) was used as running buffer.
For immobilization, amine coupling reagents were obtained from the GE Healthcare® kit containing 0.2 M EDC in water, 0.05 M NHS in water and ethanolamine-HCl pH 8.5. […] Aβ(1–42) and V30M-TTR fibrils were immobilized on the flow cell 2 and 4 respectively of a CM3 sensor chip with an amine coupling reaction. After the chip activation by EDC/NHS during 7 min, the fibrils were injected at: 10 µM in 10 mM sodium acetate pH 4 at a flow rate of 5 µL min^−1 during 20 min for Aβ(1–42) fibrils or at 0.36 µM in 10 mM sodium acetate pH 5.5 at a flow rate of 5 µL min^−1 during 100 min for V30M-TTR fibrils. […]
Biacore® experiments gathered data from 3 cycles for each studied analyte. […] Results of the interaction between the analytes and the Aβ(1–42) or V30M-TTR fibrils were represented on a sensorgram expressed as respectively FC2-1 or FC4-3 (RU-RUdextran) versus time. […]

[10] = biological target: T1, Aβ(1–42) fibrils; assay: Partition (spectrofluorometric) binding to Aβ(1–42) fibrils; settings: 20 µM fibrils, 2 µM nanoparticles, saturated with 3 mM AGuIX, 60 min; data not shown

T1 sequence (P05067 672-713): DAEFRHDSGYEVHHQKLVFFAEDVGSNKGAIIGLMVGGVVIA

r1 (longitudinal relaxivity) [1]: 3.4 s⁻¹ mM⁻¹
Molecule: CNC[C@H](O)[C@@H](O)[C@H](O)[C@H](O)CO.O=C([O-])CN1CCN(CC(=O)[O-])CCN(CC(=O)O)CCN(CC(=O)[O-])CC1.[Gd+3] [DOTAREM®, reference compound]

Molecule: CNc1ccc(-c2nc3ccc(O)cc3s2)cc1 [Pittsburgh compound B, [^11C]2-(4′-methylaminophenyl)-6-hydroxybenzothiazole]
binding to amyloid fibrils [2]: binds with high affinity to any amyloid fibrils

Molecule: Cy5.5 [reference compound]
staining of fibrils by Cy5.5 molecule [3]: does not stain fibrils
binding/staining of amyloid plaques in AD mouse brain sections [4]: non-binding of Cy5.5 dye to amyloid plaque; also recorded: background due to the Cy5.5 restricted to blood vessels
staining by Cy5.5 on brain section of AD mouse model [5]: does not stain fibrils

Molecule: KLVFF [AGuIX@PEG@KLVFF@Cy5.5]
binding/staining of amyloid plaques in AD mouse brain sections [4]: beta-amyloid plaques were visualized; also recorded: bind selectively amyloid plaque constituted by Aβ protein
binding/staining of amyloid plaques in AD mouse brain sections ([4]; listed as KLVFF-grafted): recognized and bound the Aβ amyloid plaque localized in the mouse hippocampus
interaction with V30M-TTR fibrils [6]: no specific interaction
interaction with V30M-TTR fibrils ([6]; listed as KLVFF-grafted): did not interact with V30M-TTR fibrils

Molecule: KLVFF [AGuIX@PEG@KLVFF]
hydrodynamic diameter [7]: 3.5 ± 0.9 nm
r1 (longitudinal relaxivity) [1]: 14.1 s⁻¹ mM⁻¹

Molecule: LPFFD [AGuIX@PEG@LPFFD]
hydrodynamic diameter [7]: 3.2 ± 0.8 nm
r1 (longitudinal relaxivity) [1]: 13.2 s⁻¹ mM⁻¹
cells alive (Fig. S7) ([8]; 1 h at 37 °C, 5 % CO2, up to 2 mM nanoparticles, MTT 2 h, 540 nm, triplicate): more than 80%

Molecule: LPFFD [AGuIX@PEG@LPFFD@Cy5.5, AGuIX@PEG@LPFFD labeled with cyanine 5.5, 1 dye for 170 Np]
interaction (R.U. remaining 141 s after end of injection) ([9]; 2.5 mM in Gd^3+): interact with Aβ(1–42) fibrils
interaction over nanoparticle concentration range ([9]; 0.02–6.4 mM in peptide, R.U. 141 s after end of injection): displayed an interaction on Aβ(1–42) fibrils (blue curves) dependent on nanoparticle concentrations injected
binding/staining of amyloid plaques in AD mouse brain sections [4]: beta-amyloid plaques were visualized; also recorded: bind selectively amyloid plaque constituted by Aβ protein
binding/staining of amyloid plaques in AD mouse brain sections ([4]; listed as LPFFD-grafted): recognized and bound the Aβ amyloid plaque localized in the mouse hippocampus
Cy5.5 fluorescence associated with fibrils [10]: no fluorescence has been detected associated with fibrils
cells alive ([8]; 5 mM Gd^3+, MTT): more than 75%
cells alive ([8]; 1 h incubation, 0.5 to 2 mM Gd^3+, MTT): more than 80%
toxic effects on cells ([8]; MTT, up to 5 mM Gd^3+): do not exhibit any toxic effects on cells
interaction with V30M-TTR fibrils [6]: no specific interaction
interaction with V30M-TTR fibrils ([6]; listed as LPFFD-grafted): did not interact with V30M-TTR fibrils

— paper PMC4960888, “Gd-nanoparticles functionalization with specific peptides for ß-amyloid plaques targeting” (Journal of Nanobiotechnology, 2016)
